The values that follow are results of earlier work, collected in US20090215646A1, “SYSTEM AND METHOD OF ANALYTE DETECTION USING DIFFERENTIAL RECEPTORS” (The Board of Regents of the University of Texas Sy, priority 2005, published 2009).

For the data set the following is noted: isoelectric point.

As to “Fetuin: glycoprotein analyte obtained commercially”, the pI was 4.5-4.9. In the case of “Lysozyme: protein analyte obtained commercially”, the pI was 9.6-11.

B1: Ovalbumin: glycoprotein analyte obtained commercially (protein, UniProt P01012 2-386, looked up)
Ovalbumin: GSIGAASMEFCFDVFKELKVHHANENIFYCPIAIMSALAMVYLGAKDSTRTQINKVVRFDKLPGFGDSIEAQCGTSVNVHSSLRDILNQITKPNDVYSFSLASRLYAEERYPILPEYLQCVKELYRGGLEPINFQTAADQARELINSWVESQTNGIIRNVLQPSSVDSQTAMVLVNAIVFKGLWEKAFKDEDTQAMPFRVTEQESKPVQMMYQIGLFRVASMASEKMKILELPFASGTMSMLVLLPDEVSGLEQLESIINFEKLTEWTSSNVMEERKIKVYLPRMKMEEKYNLTSVLMAMGITDVFSSSANLSGISSAESLKISQAVHAAHAEINEAGREVVGSAEAGVDAASVSEEFRADHPFLFCIKHIATNAVLFFGRCVSP
Turning to B1, the pI is on record as 4.6.
